{
  "source": "the DeepSol protein solubility set",
  "data": [
    {"assay": "soluble on expression in E. coli; label from the status in PepcDB or PDB records", "values": [
      {"sequence": "MNRIAFDAKRITSNATGLGNYSRFVVEALAAFHSEHRYYLCSPGKGNPALYSALQQREGIEWLLPEGRRMGGTFWRNFGVVPRLQKEGIDLFHGLSHELPLGIYGKGIATVVTIHDLIFIRYPHYYKPVDRLLYRLKYGHAARCADRVIAISEQTKRDVMEFFHVPADRIDVVYQGCSPAFGQATEEDESRARERYALPERYLLYVGSIETRKNLRLAVEALAHCRDRHIRLVAVGKRTPYCAEVQQCAERSGVADRLVMLHDVPFAFLPGIYRGAEVFVYPSRFEGFGIPIVEALASGVPVVAATGSCLEEAGGPSSLYTDPDDAEMMASMLDSILSDSSLREKMIADGRTYIERFSPEAVARSLMHVYDKVL", "soluble on expression in E. coli": "not soluble"},
      {"sequence": "GGSHMELPGSSMKPSGEDQAALAAGPWEECFQAAVQLALRAGQIIRKALTEEKRVSTKTSAADLVTETDHLVEDLIISELRERFPSHRFIAEEAAASGAKCVLTHSPTWIIDPIDGTCNFVHRFPTVAVSIGFAVRQELEFGVIYHCTEERLYTGRRGRGAFCNGQRLRVSGETDLSKALVLTEIGPKRDPATLKLFLSNMERLLHAKAHGVRVIGSSTLALCHLASGAADAYYQFGLHCWDLAAATVIIREAGGIVIDTSGGPLDLMACRVVAASTREMAMLIAQALQTINYGRDDEK", "soluble on expression in E. coli": "soluble"},
      {"sequence": "MAHRAFIQVIITGTQVFGKAFAEAYRQAASQSVKQGATNASRRGTGKGEYGGITLDESCKILNIEESKGDLNMDKINNRFNYLFEVNDKEKGGSFYLQSKVYRAAERLKWELAQREKNAKAKAGDASTAKPPPNSTNSSGADNSASSNQ", "soluble on expression in E. coli": "not soluble"},
      {"sequence": "MSLSAMARKVKITDVKCMIVRGTWDWNLIKIETDSGLYGIGEAYWGWGVKDLVVNKMKGIIVGEDPLNVDKLYTKMLMQSAGAGAIGGVTMTAASGIEIALWDLCGRILDTPVCNLLGGRFRDRIRFYRTTQAVKNVEDTKEWRALAESARAEKWGWTAFKFQGDGIPPRADPEFKEPGHDPYARNLTHKDHRRIVTAMETVRETLGPDADFAVECHWRYDTQDVISLGKELEPVKPMWLEDPVPPDNIEAMQRVTHAINVPVCTGENLYGRQGFRKLIEMQACSGVHIDIPKSGGLMESKKISDLADLYYIWTACHNPASPVGTIASCHASAAMREFRIHELANWVDWWPDLVIREGPFWKDGYFTIQDKPGYGVELNPDVAKAHLAPGETWWGEGHHHHHH", "soluble on expression in E. coli": "not soluble"},
      {"sequence": "MADKRIRSDSSAAAVQAMKNAAVDTIDPPSHAGLEKKAEPFWHDNIRSKALDSWTPADLLAAVELANNQLYITVLRKDLRKEERIRGEERDEGLIKDLRKQIVELQRTILAQRRDLQIHSHATNGESRDQKKRNQNDRDARNTKNEHQDQDDNLIAFPKHG", "soluble on expression in E. coli": "not soluble"},
      {"sequence": "MGSDKIHHHHHHMSFPDVTNYYLFAQVMACGSISAASRELGLPKSTISRKMALLEQEQGTRLFHRSRSGLKLTDVGREFLVHCERLVSAAESAQQVTQRLLDKPRGKVEISAPYALSQSLLVQVLPEFMSLYPEVEIQLVVTNRPVNLIEEGIDIALRVRKNIEDSSLIARPISQAPQTLYIAPDLINQNSITEPEDLLTFEHLSMHYTNGRYGYELIHSSGLQKNIRIKPRLITDDMIVLREAAIKKLGIVALPNYLCNDAVNSGELVPVLTDWHLPIGIMHITYSHRRGILPAVRVLIDFLAEKLPHLAQQQF", "soluble on expression in E. coli": "not soluble"},
      {"sequence": "MPYKEKDIEKKYFSIGEVSAMFKVAPSLIRFWETEFDIFKPQKNRRGNRQFTKEDIENFRLIYNLVKERGYTLQGAKEMLKVDRHKSKDKMELLDSLQKVRDFLVDLKKQME", "soluble on expression in E. coli": "not soluble"},
      {"sequence": "MEQLYPAPIKTVEEGSPAARAGVRPGDVLLRVNGQPVTDVLAYRHQLERGVVTLEVARPHEAPRVMTGVLEHHHHHH", "soluble on expression in E. coli": "not soluble"},
      {"sequence": "GPLDLSRDECKRILRKLELEAYAGVISALRAQGDLTKEKKDLLGELSKVLSISTERHRAEVRRAVNDERLTTIAHNMSGPNSSSEWSIEGRRLVPLMPRLVPQTAFTVTANAVANAAIQHNASLPVPAETGSK", "soluble on expression in E. coli": "soluble"},
      {"sequence": "MKTPRLLQYLAYPQKITGPIIEAELRDVAIGELCEIRRGWHQKQVVARAQVVGLQRERTVLSLIGNAQGLSRDVVLYPTGRALSAWVGYSVLGAVLDPTGKIVERFTPEVAPISEERVIDVAPPSYASRVGVREPLITGVRAIDGLLTCGVGQRMGIFASAGCGKTMLMHMLIEQTEADVFVIGLIGERGREVTEFVDMLRASHKKEKCVLVFATSDFPSVDRCNAAQLATTVAEYFRDQGKRVVLFIDSMTRYARALRDVALASGERPARRGYPASVFDNLPRLLERPGATSEGSITAFYTVLLESEEEADPMADEIRSILDGHLYLSRKLAGQGHYPAIDVLKSVSRVFGQVTTPTHAEQASAVRKLMTRLEELQLFIDLGEYRPGENIDNDRAMQMRDSLKAWLCQPVAQYSSFDDTLSGMNAFADQN", "soluble on expression in E. coli": "not soluble"},
      {"sequence": "MTGVLVGCSVEKTNTNKVNIDKVEIVAPNVQGAGWDLTARAMQKTLTEEKIFTKPITVTNKVGGSGDVGWKYTKQKGGHVLAINSSLLITNNLLGHSKLTYKDFTPLATLASDWEVVVVSKDSNIENANQLMEQLKQNKKNFKIGVAPGLGNDDHLSFVQVSKAFGINPAELQFFVYENKEKIISALTNKQINAATMTLSEAEKQYKAGKIKILAVSAPKRIDRLPQIPTWKEQGIDVIFQHWKGIMGPKDMTEEEVAYWDDVIKRMVESDSWKGILRERGWESFYKGSGESSGWYGGMIKTEKVDEEGSYRMRFLGLFIGNLIYS", "soluble on expression in E. coli": "not soluble"},
      {"sequence": "LPGRFQRSDVERVVTACSAALGLSSACLRALLVMVHATRPSDWRDEQRDAVCFMQQVQVAARLGVTPRALRYQEARLERLGLLRRNVAADGSRGRFGGGDLIQGISFAPLIEAFPSLLRIAEQLEAAERERQVLRRRVSAARRILSQTLTRLAALDKAVPGLTEVLASMPRRYDALDGSELGALLQRVDKAAREALRHLEVQQVSSGVPENSFRPHIQDTTQENPVCSGSSAIERTARKRADSIKPDAAPDGTASCYEKKHGLADRGFKPRYLDTFTPTQLYEAASPDMQMYLDAGRRSDSTLTAHDFIQAAIAILPALGVNASAWDEAADTMGDLPAALCVLVLDANRYRPVNPVWSPGGMLRAMTARARSGGLNLHGSLIALQRRAG", "soluble on expression in E. coli": "not soluble"},
      {"sequence": "MYAAYQTNGPARPIARTAAFTKEDDLLVDMARQNNLRGRILTYCVAGTFGLLSPNYLHASAATANWDINQIEISGLSESSVGAISESARDIAHIRAVTKISVSELSRVFGVSRQAVHEWIKGGTLSQRNAQRLSELARATDVFIEAEIEASPQVFRRKIAGGQSILDAVRENGNAVELAKTLAATLVRESQQRQRLAARLAGRSATPGTSTEFGSPHLDEDA", "soluble on expression in E. coli": "not soluble"},
      {"sequence": "MKYFQEADIAVTVCDKTGKIIDMNEQSRQVNLKPGQELIGSNVLDCHPEPARSMLEEMMRQERKHVYTIEKNGRKKLIYQIPWYEKGEYMGFLELSMVIPFEMEHKIRTPKPAND", "soluble on expression in E. coli": "not soluble"},
      {"sequence": "AATITTSGTVLPTVTVAGHRAAIDEAPPLYKGGQVGSGARMGVLGNTAVMDTPFSVTSYSAQVIENNQARSVADIAAMDPSVRMSSARSNINEDLTMRGFSVSSADFALNGLFGLTPYWRAPLESIERVEVIKGPSAALFGMAPGSSVGGVVNLVPKRAGDTP", "soluble on expression in E. coli": "not soluble"},
      {"sequence": "MQDTLPIHFAPLQGYTEAIYRNAHDAFFGGVDTYYTPFVRLEKGNFRRRDVRGIEPENNGVPHLIPQLIASSAEKAEVILSLFIEKGYQEVDINLGCPFPLLAKRHNGSGILPYPEEVKALLSIVTRYPQISFSVKMRLGWEQPDECLALAPILNDLPLRQITMHPRLGKQGYKGEVDLQGFSAFREVCQLPLVYNGDIHNLEDIQRISTQFPSLAGIMIGRGLLANPALALEYKENRTLAPDEMRDRLKSMHKSVYNNYDVLLEGGEGQLLTKMKTFWEYLAPQTDRKVLKAIHKSTNISKYYQAVSAFFNQR", "soluble on expression in E. coli": "not soluble"},
      {"sequence": "MDAVDRGVYFDEDFHVRILDVDKYNASKSLQDNTNVFINNIQNMQGLVDKYVSAIDQQVERLEAEKLKAIGLRNRVAALSEERKRKQKEQERMLAEKQEELERLQMEEQSLIKVKGEQELMIQKLSDSSSGAAYV", "soluble on expression in E. coli": "not soluble"},
      {"sequence": "MGSDKIHHHHHHMTQKLPRQATASEESLMRIFTVPEDAESTLSIIEQKLSEDLAGFLGDSIAALEKPLSEIETDFQAFKIPTQPRFVSDYTDEIMQNLVAHSVHTSAPSFIGHMTSALPYFVLPLSKMMVGLNQNLVKIETSKAFTPLERQVLGMMHHLIYAQNTDFYQSWMHSANHSLGAFCSGGTVANITALWIARNQLLKADGEFKGVTREGLLKALRYYGYDDLAILVSERGHYSLGKAVDLLGIGRDNIISIPTDSHNKVDIAKMRKAALELARKNIKVLAIVGVAGTTETGNVDPLIELAALAKELNCHFHVDAAWGGASLLSNKYRHLLAGIELADSVTIDAHKQMYVPMGAGMVLFKNPEFAHAIAHHAEYILRRGSKDLGSQTLEGSRPGMAMLVHACLQIIGLDGYEILINNSIEKARYFAEQIKAHRDFELVTEPELCLLTYRYVPAKVQAAMQVAIEQGDTAKLARFNELLDGLTQFIQKHQREQGKSFVSRTRISPARYFRQATVVFRVVLANPLTSHDILNQVLVEQSEIAALDKEFLPALLAMVAE", "soluble on expression in E. coli": "not soluble"},
      {"sequence": "MGSDKIHHHHHHMSNAEWLNALETPFLLIDEFRFQRNIDRLYQRTKNLGSQVRPHLKTLRSIEAGRYLLKDSASPATVSTLAEAEAFAGAGYTNLLYAVGIAPHKLPRIANLIHKGVNLHILLDSVEQARAVTDYALANNVTFSVFIEIDCDGHRGGIPPESDALLELAQQIDGNGATLTGLLAHAGESYACRTDEAIRAAARAECAAINIAGRRVRALGIACPVLSVGATPTAHFAEDLTGITEVRAGVFTTFDLVMKNVGVCSLDDIALSVVSTVIGHNREKGWVFIDAGWMALSRDRGTASQAKDYGYGLVCDLHGSPYHDLCVTVTNQEHGIIALPTDSGFSVDNFPVGTRLRILPNHACATAAMHQHYQVLKSHRHEQETWQRITGW", "soluble on expression in E. coli": "not soluble"},
      {"sequence": "MDDLVKSSQKALENQVLRDQVSSYEREIMLQNENMEALRSFRHDMKRHFAEISVLASTGEIEQIKNYVSAMENNLVESRRLVDSGNTALDTVLNYMLQRAVDKKIQLNVKVVVPSDLKLSAYDMNIIFGNLLENAIEAQKDVKNPSIDLEINYLMDSLVVEISNRCLQKVIFKGGLPITTKQSVREHGYGLKNVKKVLDKYISTLDFECSDERFTVKILMKI", "soluble on expression in E. coli": "not soluble"},
      {"sequence": "MGSDKIHHHHHHLSIARETGSILLIPSTTTLRRAFDFETTFNDSIQFVGEDLSRQLAEDLNASKITLTSCCAYRNLSTILFNDSRIIERIDGYFQNFRYFHPDSQKIVKKLFTFMDPVRKRVSFWNIIYWNIHPTNHRKKPEKSTVSIFSFVTFQLRVDEFLENVGISLTVRNARVIETNVANDDQALELPEEDAFAKTMMVGVHIRHGMDISMNSRNRIHGHVDTPIEYYKRAIQQISKIYENVAFIICSDNVAWARRNLKLGKETLHFFCPGPREVDMAILKSCDSVIISTGTFGWWSAYLNVNASPDVYYYKHWPAPGSVMEKMTNKTEYF", "soluble on expression in E. coli": "not soluble"},
      {"sequence": "MSLELFKSVKLDKNSGTPLYMQLSDKIAEMIENGILPADLKLPSIRQMSALLNVNSVTIVSCYKHLETKGYVYSRPGSGTYVAVVLPKQSENYSDRNIILDELYQSDDLNLINNGHIKINENTINFASATPKSSLFPVENFKLVLNEVLDRDRGNAFDYQDSQGYYPLRSSVRILLEKRKIACHEENIQIISGAQQGIDIIAKALLRQGDYVITESPTYTGAIAVFKSRGAEIADVPLSCDGPNLNILEYNLKKYKPKLIYTIPSFQNPTGISYSNEKRKEILALAERYDAYIIEDDYVSGLDFENMGFATVKSMDKSDRVIFLKSFSKIFMPGLRLGFMVVPSSLKSYIIEAKHATDISTSGLIQRAFDLYIRKGMWDGHFKLMFNIYKERYYKTIEALERHLPQNVQFHKPGGGLNIWLELPANCFTGSLLKAASAENIVFAPGRIFYSSTPTNLNNIRLSFAAVDADEIERGIEKLSELILRFDRNKSEGHHHHHH", "soluble on expression in E. coli": "soluble"}
    ]}
  ]
}
